In the Immune Epitope Database (IEDB):
Values belong to the sequence of their own block, whether it stands above or below them.

Tests used:
[1] = target: HLA-B*18:01; assay: IEDB peptide-MHC binding, purified MHC/competitive/fluorescence; filed as Kd, often an IC50 or EC50 that approximates it; ≥ and ≤ were set here for values at or beyond the usual limits of such assays
[2] = target: HLA-A*68:02; assay: as above
[3] = target: HLA-A*02:11; assay: as above
[4] = target: HLA-A*29:02; assay: as above
[5] = target: HLA-A*02:01; assay: as above
[6] = target: HLA-A*02:03; assay: as above
[7] = target: HLA-B*46:01; assay: as above
[8] = target: HLA-A*02:19; assay: as above
[9] = target: HLA-B*39:01; assay: as above
[10] = target: HLA-A*02:16; assay: as above
[11] = target: HLA-A*26:01; assay: as above
[12] = target: HLA-A*02:12; assay: as above
[13] = target: HLA-A*69:01; assay: as above
[14] = target: HLA-A*02:06; assay: as above
[15] = target: HLA-B*40:01; assay: IEDB peptide-MHC binding, purified MHC/direct/fluorescence; filed as Kd, often an IC50 or EC50 that approximates it; ≥ and ≤ were set here for values at or beyond the usual limits of such assays
[16] = target: HLA-B*15:01; assay: as above
[17] = target: HLA-A*03:01; assay: as above
[18] = target: HLA-A*02:01; assay: as above
[19] = target: HLA-B*44:02; assay: as above; conditions: source organism: Rickettsia prowazekii
[20] = target: HLA-B*08:01; assay: as above
[21] = target: HLA-A*31:01; assay: as above
[22] = target: HLA-A*30:01; assay: as above
[23] = target: HLA-B*27:05; assay: as above
[24] = target: HLA-B*07:02; assay: as above
[25] = target: HLA-A*01:01; assay: as above
[26] = target: HLA-A*11:01; assay: as above
[27] = target: HLA-A*24:03; assay: as above
[28] = target: HLA-B*58:01; assay: as above
[29] = target: HLA-A*26:01; assay: as above
[30] = target: HLA-A*69:01; assay: as above
[31] = target: HLA-B*15:01; assay: IEDB peptide-MHC binding, purified MHC/competitive/fluorescence; filed as Kd, often an IC50 or EC50 that approximates it; ≥ and ≤ were set here for values at or beyond the usual limits of such assays; conditions: source organism: Cryptosporidium parvum Iowa II
[32] = target: HLA-A*03:01; assay: as above; conditions: source organism: Cryptosporidium parvum Iowa II
[33] = target: HLA-B*51:01; assay: as above; conditions: source organism: Cryptosporidium parvum Iowa II
[34] = target: HLA-B*15:17; assay: as above; conditions: source organism: Cryptosporidium parvum Iowa II
[35] = target: HLA-B*57:01; assay: as above; conditions: source organism: Cryptosporidium parvum Iowa II
[36] = target: HLA-B*27:03; assay: as above; conditions: source organism: Cryptosporidium parvum Iowa II
[37] = target: HLA-B*48:01; assay: IEDB peptide-MHC binding, purified MHC/direct/fluorescence; filed as Kd, often an IC50 or EC50 that approximates it; ≥ and ≤ were set here for values at or beyond the usual limits of such assays; conditions: source organism: Escherichia coli O157:H7
[38] = target: HLA-B*18:01; assay: as above; conditions: source organism: Escherichia coli O157:H7
[39] = target: HLA-A*68:02; assay: as above; conditions: source organism: Escherichia coli O157:H7
[40] = target: HLA-B*46:01; assay: as above; conditions: source organism: Escherichia coli O157:H7
[41] = target: HLA-B*15:17; assay: as above; conditions: source organism: Escherichia coli O157:H7
[42] = target: HLA-B*57:01; assay: as above; conditions: source organism: Escherichia coli O157:H7
[43] = source organism: Vibrio cholerae O395
[44] = source organism: Human immunodeficiency virus 1
[45] = source organism: Rickettsia prowazekii
[46] = source organism: Cryptosporidium parvum Iowa II
[47] = source organism: Pasteurella multocida
[48] = source organism: Escherichia coli 536
[49] = source organism: Escherichia coli O6
[50] = source organism: Escherichia coli O157:H7
[51] = source organism: Yersinia pestis Nepal516

Sequence: RVHFHRFMY
Kd [1, 43]: ≥ 20 µM
Kd [2, 43]: ≥ 20 µM
Kd [3, 43]: ≥ 20 µM
Kd [4, 43]: 0.0042 µM
Kd [5, 43]: ≥ 20 µM
Kd [6, 43]: ≥ 20 µM
Kd [7, 43]: ≥ 20 µM
Kd [8, 43]: ≥ 20 µM
Kd [9, 43]: ≥ 20 µM
Kd [10, 43]: ≥ 20 µM
Kd [11, 43]: ≥ 20 µM
Kd [12, 43]: ≥ 20 µM
Kd [13, 43]: ≥ 20 µM

Sequence: NLGQHIYET
Kd [3, 44]: 0.0335 µM
Kd [14, 44]: 0.11 µM
Kd [5, 44]: 9 µM
Kd [6, 44]: 0.116 µM
Kd [8, 44]: 0.146 µM
Kd [12, 44]: 0.323 µM
Kd [13, 44]: ≥ 20 µM

Sequence: VVNYDNSTK
Kd [15, 45]: ≥ 20 µM
Kd [16, 45]: ≥ 20 µM
Kd [17, 45]: 0.445 µM
Kd [18, 45]: ≥ 20 µM
Kd [19]: ≥ 20 µM
Kd [20, 45]: ≥ 20 µM
Kd [21, 45]: 5.51 µM
Kd [22, 45]: 1.74 µM
Kd [23, 45]: ≥ 20 µM
Kd [24, 45]: ≥ 20 µM
Kd [25, 45]: ≥ 20 µM
Kd [26, 45]: 0.0451 µM
Kd [27, 45]: ≥ 20 µM
Kd [28, 45]: ≥ 20 µM
Kd [29, 45]: ≥ 20 µM
Kd [30, 45]: ≥ 20 µM

Sequence: VYWENEVSI
Kd [31]: ≥ 20 µM
Kd [1, 46]: ≥ 20 µM
Kd [2, 46]: ≥ 20 µM
Kd [3, 46]: ≥ 20 µM
Kd [4, 46]: ≥ 20 µM
Kd [32]: ≥ 20 µM
Kd [5, 46]: ≥ 20 µM
Kd [6, 46]: ≥ 20 µM
Kd [7, 46]: ≥ 20 µM
Kd [8, 46]: ≥ 20 µM
Kd [9, 46]: ≥ 20 µM
Kd [10, 46]: ≥ 20 µM
Kd [33]: ≥ 20 µM
Kd [34]: ≥ 20 µM
Kd [11, 46]: ≥ 20 µM
Kd [12, 46]: 0.287 µM
Kd [35]: ≥ 20 µM
Kd [13, 46]: ≥ 20 µM
Kd [36]: ≥ 20 µM

Kd [15, 47]: ≥ 20 µM
Kd [16, 47]: ≥ 20 µM
Kd [17, 47]: ≥ 20 µM
Kd [18, 47]: ≥ 20 µM
Kd [20, 47]: 0.161 µM
Kd [21, 47]: ≥ 20 µM
Kd [22, 47]: 15.7 µM
Kd [23, 47]: ≥ 20 µM
Kd [25, 47]: ≥ 20 µM
Kd [26, 47]: ≥ 20 µM
Kd [27, 47]: ≥ 20 µM
Kd [28, 47]: ≥ 20 µM
Kd [29, 47]: ≥ 20 µM
Kd [30, 47]: ≥ 20 µM
Sequence: NNKSRLVAF

Kd [15, 48]: ≥ 20 µM
Kd [16, 48]: ≥ 20 µM
Kd [17, 48]: ≥ 20 µM
Kd [18, 48]: ≥ 20 µM
Kd [20, 48]: ≥ 20 µM
Kd [22, 49]: 4.19 µM
Kd [23, 48]: ≥ 20 µM
Kd [24, 48]: ≥ 20 µM
Kd [25, 48]: ≥ 20 µM
Kd [27, 49]: 0.00253 µM
Kd [28, 49]: 9.09 µM
Kd [29, 48]: ≥ 20 µM
Kd [30, 48]: ≥ 20 µM
Sequence: RYICPVQQI

Sequence: RGRGVAIHR
Kd [37]: ≥ 20 µM
Kd [15, 50]: ≥ 20 µM
Kd [16, 50]: ≥ 20 µM
Kd [38]: ≥ 20 µM
Kd [39]: ≥ 20 µM
Kd [17, 50]: 0.487 µM
Kd [18, 50]: ≥ 20 µM
Kd [21, 50]: 0.0066 µM
Kd [23, 50]: ≥ 20 µM
Kd [24, 50]: ≥ 20 µM
Kd [40]: ≥ 20 µM
Kd [25, 50]: ≥ 20 µM
Kd [26, 50]: ≥ 20 µM
Kd [41]: ≥ 20 µM
Kd [28, 50]: ≥ 20 µM
Kd [42]: ≥ 20 µM
Kd ([14]; source organism: Shigella dysenteriae 1012): 0.569 µM

Sequence: SLTPSPLDL
Kd [14, 51]: 1.39 µM
Kd [5, 51]: 0.21 µM
